Patent publication US6639060

Biological target: human erbB-3 protein, gp180^erbB-3 (human) (UniProt P21860)
Experiment: cell-based or functional assay

Chain of UniProt P21860 (P21860 20-1342): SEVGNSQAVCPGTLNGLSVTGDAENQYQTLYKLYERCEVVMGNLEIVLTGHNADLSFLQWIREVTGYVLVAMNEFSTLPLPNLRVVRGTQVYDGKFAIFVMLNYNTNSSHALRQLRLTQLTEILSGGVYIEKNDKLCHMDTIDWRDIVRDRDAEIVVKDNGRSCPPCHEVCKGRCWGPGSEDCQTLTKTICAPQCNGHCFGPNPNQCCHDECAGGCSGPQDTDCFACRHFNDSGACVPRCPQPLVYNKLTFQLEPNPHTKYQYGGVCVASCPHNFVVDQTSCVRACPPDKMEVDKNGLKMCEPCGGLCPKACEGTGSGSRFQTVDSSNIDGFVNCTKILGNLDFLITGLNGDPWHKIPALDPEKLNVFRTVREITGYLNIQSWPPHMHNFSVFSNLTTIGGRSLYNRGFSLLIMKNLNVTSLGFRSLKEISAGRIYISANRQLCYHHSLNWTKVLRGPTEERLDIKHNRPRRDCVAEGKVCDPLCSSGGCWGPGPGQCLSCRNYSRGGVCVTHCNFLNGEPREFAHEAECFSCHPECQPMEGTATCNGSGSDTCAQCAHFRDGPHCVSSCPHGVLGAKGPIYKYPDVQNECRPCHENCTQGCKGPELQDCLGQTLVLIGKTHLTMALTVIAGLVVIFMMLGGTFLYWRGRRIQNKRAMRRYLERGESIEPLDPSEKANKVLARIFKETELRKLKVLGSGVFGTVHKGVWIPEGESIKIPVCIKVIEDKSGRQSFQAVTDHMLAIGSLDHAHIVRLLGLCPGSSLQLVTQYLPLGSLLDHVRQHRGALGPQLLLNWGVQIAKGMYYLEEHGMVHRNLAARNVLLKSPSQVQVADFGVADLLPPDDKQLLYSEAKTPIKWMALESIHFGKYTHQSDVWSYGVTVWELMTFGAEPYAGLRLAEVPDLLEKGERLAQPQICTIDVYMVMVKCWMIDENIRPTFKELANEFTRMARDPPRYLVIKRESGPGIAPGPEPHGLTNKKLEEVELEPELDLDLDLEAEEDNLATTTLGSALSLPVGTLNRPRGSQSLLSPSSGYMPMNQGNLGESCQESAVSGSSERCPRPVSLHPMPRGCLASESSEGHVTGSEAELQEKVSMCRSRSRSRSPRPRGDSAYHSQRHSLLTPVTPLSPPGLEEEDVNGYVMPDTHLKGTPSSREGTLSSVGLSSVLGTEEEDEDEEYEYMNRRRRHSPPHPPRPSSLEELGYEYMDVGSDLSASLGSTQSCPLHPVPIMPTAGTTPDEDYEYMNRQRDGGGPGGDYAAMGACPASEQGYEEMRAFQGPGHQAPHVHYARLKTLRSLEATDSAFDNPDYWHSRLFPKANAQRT

EGF (epidermal growth factor) (ligand)
soft agar colonies/10^4 cells, + EGF 20 ng/ml (- EGF: 97) (colonies/10^4 cells): 94
